assay: yeast display, Sf9 membrane polyspecificity reagent, FACS + sequencing; frameworks hold sequencing errors
Outline: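 A synthetic nanobody library was expressed on Saccharomyces cerevisiae BJ5465 by galactose induction for 36–48 hours. The library was stained for 1 hour at 4 °C with 10% biotinylated, detergent-solubilized Sf9 membrane reagent and enriched with streptavidin microbeads before FACS. Low and high (top ~1%) gates were set on anti-HA fluorescence for expression and streptavidin fluorescence for reagent binding, and each polyreactivity label reflects the gate of origin.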

Row | Sequence | polyreactivity (PSR sort gate)
1 | QVQLVESGGGLVQAGGSLRLSCAASGRTFPTYAMGWYRQAPGKERELVARITWNGGSTYYADSVKGRFTISRDNAKNTVYLQMNSLKPEDTAVYYCNAAQRIRYYPRYYYGYDYWGQGTQVTVSS | high polyreactivity
2 | QVQLVESGGGLVQAGGSLRLSCAASGFTFSWYAMGWYRQAPGKERELVAVITGAGITDYADSVKGRFTISRDNAKNTVYLQMNSLKPEDTAVYYCNAKSDRGVSGSGSGAYDYWGQGTQVTVSS | low polyreactivity
3 | QVQLVESGGGLVQAGGSLRLSCAASGNIFSDYTMGWYRQAPGEERELVAAISGEGGTTYNADSVKGRFTISRDNAKNTVYLQMNRLKPEDPAVYYCAADGYYHAYDQFFIVYYEYDYWGQGTQVTVSS | low polyreactivity
4 | QVQLVESGGGLVQAGGSLRLSCAASGRTFGANAMGWYRQAPGKERELVAASTQDGGSTYYADSVKGRFTISRDNAKNTVYLQMNSLKPEDTAVYYCAADLVVFVQFDVAVDYYYWGQGTQVTVSS | low polyreactivity
5 | QVQLVESGGGLVQAGGSLRLSCAASGFIFYRYAMGWYRPAPGKERELVAAISRSGGTTYYADSVKGRFTISRDNAKNTVYLQMNSLKPEDTAVYYCNVKRGTIGGYYYWGQGTQVTVSS | high polyreactivity
6 | QVQLVESGGGLVQAGGSLRLSCAASGSTFIIYAMGWYRQEPGKEREFVATITGRGGRTYYAVSVKGRFTISRDNAKNTVYLQMNSLKPEDTAVYYCAKGLGSGQEIYGYDYGGQGTQVTVSS | high polyreactivity
7 | QVQLVESGGGLVQAGGSLRLSCAASGGIFFLYAMGWYRQAPGKETELVAAIRQDGGSTYYADSVKGRFTISRDNAKNTVYLQMNSLKPEDTAVYYCNAGYVKTGLEYYYWGQGPQVTVSS | low polyreactivity
8 | QVQLVESGGGLVQAGGSLRLSCAASGGTLVPNAMGWYRPAPGKERELVAGISGSGGSTYYADSVKGRFTISRDNAKNTVYLQMNSLKPEDTAVYYCNADRYVPYYEPEMDYWGQGTQVTVSS | low polyreactivity
9 | QVKLVESGGGLVQAGGSRRLSCAASGLIFYSYAMGWSRQAPGKERELVAAISSRGGSTYYADSVKGRFTISRDNAKNTVYLQMNSLKPDDTAVYYCNAYFLLPHYDYWGQGTQVTVSS | low polyreactivity
10 | QVQLVESGGGLVQAGGSLRLSCAASGFTFYRYTMGWYRQAPGKERELVASITRRGGSTYYADSVKGRFTISRDNAKNTVYLQMNSLKPEDTAVYYCNAATPVWQSGTYEYWGQGTQVTVSS | high polyreactivity
11 | QVQLVESGGGLVQEGGSLRLSCAASGRTICLNDMGWYRQAPGKERELVAGITRSGGSTYYADSVKGRFTISRDNAKNTVYLQMNSLKPEDSAVYYCAADFKPLYYDEYDYWGQGTQVTVSS | low polyreactivity
12 | QVQLVESGGGLVQAGGSLRLSCAASGRILQYNDMGWYRPAPGKERELVAAIDWSGGITYYADSVKGRFTISRDNAKNTVYLQMNSLKPEDTAVYYCNADFEYSYLYRMEYWGQGTQVTVSS | low polyreactivity
13 | QVQLVETGGGLVQAGGSLRLSCAASGRTLIGNAMGWYRQAPGKERELVAAISFRGTRTYYADSVKGRFTISRDNAKNTFYLQMNSLKPEDTAVYYCNVYTRDRGYDYWGQGTQVTVSS | high polyreactivity
14 | QVQLVESGGGLVQAGGSLRLSCAASGLISGDYAMGWYRQAPGKERELVARITSGDSTNYADSVKGRFTISRDNAKNTVYLQMNSLKPEDTAVYYCAAKRYVFQNDYWGQGTQVTVSS | low polyreactivity
15 | QVQLVESGGGLGQAGGSLRLSCAASGFTFDFYAMGWYRQAPGKERELVAAISKNDGTTYYADSVKGRFTISRDNAKNTVYLQMNSLKPEDTAVYYCAAESGYPVYTYVSSGDYWGQGTQVTVSS | low polyreactivity
16 | QVQLVESGGGLVQAGGSLRLSCAASGRTFYWYAMGWYRKAPGKERELVAAITSGGSTYYADSVKGRFTISRDNEKNTVYLQMNILKPEDTAVYYCGVDVDWWDGMDYWGQGTQVTVSS | high polyreactivity
17 | QVQLVESGGGLVQAGGSLRLSCAASGRTFPYYAMGWYRQAPGKERELVAAITWSGGTTYYADSVKGRFTISRDNAKNTVYLQMNSLKPEDTAVYYCAADFYGPDGYDYWGQGTQVTVSS | low polyreactivity
18 | QVQLEESGGGLVQAGGSLRLSCAASGSTLNRYPMGWNRHATGKERELVATIRWSGGSTYYADSVKPRFTISRYNEKHTVDLQMNSLKAEDTAVYYCAPDRYYYRGRYYGYTREFDYWGQGTHVTVSS | high polyreactivity
19 | QVQLVESGGGLVQAGGSLRLSCAASGFIFLPYAMGWYRQAPGKERELVAAITRGGRTYYADSVKGRFTISRDNAKNTVYLKMNSLKPEDTAVYYCAATTYLVWGYNYWGQGTQVTVSS | low polyreactivity
20 | QVQLVESGVGLVQAGGSLRLSCAASGSIFASYTMGWYIQAPGKERELVAAINRSGGSTYYADSVKGRFTISRDNAKNTVYFQMNSLKPDDTAVYYCAAGYIRRYYGYDYWGQGTQVTVSS | high polyreactivity

Row | Sequence | polyreactivity (PSR sort gate)
21 | QVQLVESGGGLVQAGGSLRLSCAASGRTFRLNGMGWYRQAPGKERELVAAITWSGGRTDYADSVKGRFTISRDNAKNTVYLQMNSLKPEDTAVYYCAAGKSSYGKPKYYYWGQGTQVTVSS | high polyreactivity
22 | QVHLVDSGGGLVQAGGSLRLSCATSGRIFGAYAMVWYRQAPGKESELVAAITSRGGNTYYADSVKGRFTISRDNAKNTVYLQMNSLKPEDTAVYYCAAGHDKRRQYYVGQSAFDYWGQGTQLTVSS | low polyreactivity
23 | QVQLVESGGRLVQAGGSLRLSCAASGIIFTNYAMGWYRQAPGKERELVAAISSSSGTTYYADSVKGRFTISRDNAKNTVYLQMNSLKPEDTAVYYCAARPVYSTGYPRGRYGYWGQGTQVTVSS | high polyreactivity
24 | QVQIVESGGGLVQAGGSLRLSCAASGRTFKGYAMAFYRQAPGKERELVAGISRGAGRTYYADSVKGRFTISRDNAKNTVYLQMNSLKPEDTAVYYCAAVPSYNSTSPFYYWGQGTQVTVSS | high polyreactivity
25 | QVQLVESGGGLVQAGGTLRLSCAASGSTFGYYAMGWYRQAPGKERELVAAISWRGGSTYYADSVKGRFTISRYNANNTVYLQMNSLKPEDTAVYYCAAPVGNYGSFDYWGQGTKVTVSS | low polyreactivity
26 | QVQLVESGGGLVQAGGSLRLSCAASGSTVYYNAMGWYRQAPGKERELVADISWRGGITYYADSVKGRFTISRDNAKNTVYLQMNSLKPAETAVYYCNADAESFDDGYWGQGTQVTVSS | low polyreactivity
27 | QVQLVESGGGLVQAGGSLRLSCAASGITFRYYAMGWYRQAPGKERELVAVISTSGGSTYYADSVKGRFTISRDNAKNTVYLQMNSLKPEDTAVYYCAVVWPYSERYYYWGQGTQVTVSS | high polyreactivity
28 | QDQLVESGGGLFQAGGSLRLSCAASGFTFVDYTMGWYRQEPGKEREFVAAISSSGGSTYYADSVKGRITISRDYAKNTVYFQMNSLKPEDTAVYYCKADAINKRGGRDYWGQGTQVTVSS | high polyreactivity
29 | QVQLVESVGGLVQAGGSLRLSCAASGITSYRYTKGWYRQAPGKARELVAAITISGGRTYYGDSVKGRFTISRDNAKNTVYLQLNSLKPEDTAVYYCAAGWRSGFDYWGQGTQVTVSS | high polyreactivity
30 | QVQLVESGGGLVQAGGSLRLSCAASGRIFGLYAMGWYRQAPGKERELVAAITSSTGSTYYADSVKGRFTISRDNAKNTVYLQMNSLKPEDTAVYYCAADLYSPSIYGYIYYTWLDYWGQGTQVTVSS | high polyreactivity
31 | QVQLVESGGGLVQAGGSLRLSCAASRSTFPFYAMGWYRQAPGKERELVAAITSGGSTYADSVKGRFTISRDNAKNTVYLQMNSLKPEDTAVYYCAASWPRWWRFGYWGQGTQVTVSS | low polyreactivity
32 | QVQLVESGGGLVQAGGSLRLSCAASGRTFPYNAMVWYRQAPGKERELVARITSGVRTYYADSVKGRFTISRDNAKNTVYLQMNSLKPEDTAVYYCAATTYNRFYRAPTSKYDYWGQGTQVTVSS | high polyreactivity
33 | QVQLVESGGGLVQAGGSLRLSCAASGRTFVYYAMGWYRQAPGKERELVAAIRSGGSTNYADSVKGRFTISRDNAKNTVYLQMNSLKPEDTAVYYCNAVHYYYYKGDYWGQGTQVTVSS | high polyreactivity
34 | QVQLVESGGGLVQAGGSLRLSCAASGITFVYYAMGWYRQAPGNERELVATIDRSGTSTYYADSVKGRFTISRDNAKNTVVLQMTSLKQEDTAVYDCNAHRYAFYQYYRRMDYWGKGTQVTVSS | high polyreactivity
35 | QVQLEESGAGLVQAGGSLRLSCAASGSIFVRNAMAWYRHAPGKERELVAVITRSAGRTYYADSVKGRFTISRDNAKNTVYLQMNSLKPEDTAVYYCAASPSTPNKYGSWGQGTQVTVSS | high polyreactivity
36 | QVQLVESGGGLVQAGGSLRLSCAASGRTFIRYAMGWYRQAPGKERELVAAITQSGGSTYYADSVKGRFTISRDNAKNTVYLQMNSLKPEDTAVYYCAAEYRYPGWSYNYWGQGTQVTVSS | high polyreactivity
37 | QVQLVESGGGLVQAGGSLRLSCAASGSTFWVYAMGWYRQAPGKERELVAGISNSGGNTYYADSVKGRFTISRDNAKNTVYLQMNSLKPEDTAVYYCNVDRGNPVPPSEYWGQGTQVSVSS | low polyreactivity
38 | QVQLVESGGGLVQAGGSLRLSCAASGSIFTWNVMGWYRQAPGKERELVAAISSGGSTNYADSVKGRFTISRDNAKNTVYLQMNSLKPEDTAVYYCATYFRVWYRSYDYWGQGTQVTVSS | high polyreactivity
39 | QGQLVESAGGLVQAGGSLRLSCAASGSILWHYAMGWYRQAHGKERELVAAISGSGSTIYADSVKGRFTISRDNAKNTVYLQLITLKPEDTADYYCARVHGTSESKYYYWGQGTQVTVSL | low polyreactivity
40 | QVQLVESGGGLVQAGGRLRLSCAASGGTFYLNAMGWYRQAPGKERELVAAISGSGTSTYYADSVKGRFTISRDNAKNTVYLQMNSLKPEDTAVYYCAADGTYFYIYLGDRFDYWGQGTQVTVSS | low polyreactivity

From the nanobody polyreactivity screen of Harvey et al. (2022)
